The supplement of paper PMC10598134
± gives the standard deviation.

Test: collision cross section of modified peptide (TIMS, N2, iRT-aligned); higher = larger / more extended gas-phase ion
Protocol: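 1/K0 was aligned run-wise to spiked iRT peptides and converted to CCS in N2 (Mason-Schamp). Values are the mean of 1-3 technical replicates for the most abundant feature at each charge state.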

[1] = charge state: 2, modification: Malonyl
[2] = charge state: 3, modification: Malonyl
[3] = charge state: 2, modification: Methyl (K)
[4] = charge state: 3, modification: Methyl (K)
[5] = charge state: 2, modification: Propionyl
[6] = charge state: 2, modification: Succinyl
[7] = charge state: 3, modification: Succinyl
[8] = charge state: 2, modification: Trimethyl (K)
[9] = charge state: 3, modification: Trimethyl (K)
[10] = charge state: 2, modification: hydroxyisobutyryl
[11] = charge state: 3, modification: hydroxyisobutyryl
[12] = charge state: 2, modification: Acetyl (K)
[13] = charge state: 3, modification: Acetyl (K)
[14] = charge state: 2, modification: Biotin
[15] = charge state: 3, modification: Biotin
[16] = charge state: 2, modification: Butyryl
[17] = charge state: 3, modification: Butyryl
[18] = charge state: 2, modification: Crotonyl
[19] = charge state: 3, modification: Crotonyl
[20] = charge state: 2, modification: Dimethyl (K)
[21] = charge state: 3, modification: Dimethyl (K)
[22] = charge state: 2, modification: Formyl
[23] = charge state: 2, modification: Glutarylation
[24] = charge state: 3, modification: Glutarylation
[25] = charge state: 2, modification: GlyGly (K)
[26] = charge state: 3, modification: GlyGly (K)

DASTLQSQKAEGTGDAK [_DASTLQSQK(Malonyl)AEGTGDAK_]
collision cross section [1]: 438.73 ± 1.8 Å²
collision cross section [2]: 490.61 ± 1.6 Å²

DASTLQSQKAEGTGDAK [_DASTLQSQK(Methyl (K))AEGTGDAK_]
collision cross section [3]: 440.39 ± 1.8 Å²
collision cross section [4]: 487.49 ± 2.4 Å²

DASTLQSQKAEGTGDAK [_DASTLQSQK(Propionyl)AEGTGDAK_]
collision cross section [5]: 434.77 ± 2.9 Å²

DASTLQSQKAEGTGDAK [_DASTLQSQK(Succinyl)AEGTGDAK_]
collision cross section [6]: 437.2 ± 0.35 Å²
collision cross section [7]: 509.05 ± 1.6 Å²

DASTLQSQKAEGTGDAK [_DASTLQSQK(Trimethyl (K))AEGTGDAK_]
collision cross section [8]: 445.31 ± 1 Å²
collision cross section [9]: 482.47 ± 1.6 Å²

DASTLQSQKAEGTGDAK [_DASTLQSQK(hydroxyisobutyryl)AEGTGDAK_]
collision cross section [10]: 441.13 ± 0.33 Å²
collision cross section [11]: 514.99 ± 2.1 Å²

DDIIENAPTTHTEEYSGEEK [_DDIIENAPTTHTEEY(Nitro (Y))SGEEK_]
collision cross section (charge state: 3, modification: Nitro (Y)): 553.72 ± 2.2 Å²

DDSFLGKLGGTLAR [_DDSFLGK(Acetyl (K))LGGTLAR_]
collision cross section [12]: 410.51 ± 1.7 Å²
collision cross section [13]: 489.73 Å²

DDSFLGKLGGTLAR [_DDSFLGK(Biotin)LGGTLAR_]
collision cross section [14]: 427.7 ± 0.62 Å²
collision cross section [15]: 505.13 Å²

DDSFLGKLGGTLAR [_DDSFLGK(Butyryl)LGGTLAR_]
collision cross section [16]: 417.41 ± 0.39 Å²
collision cross section [17]: 492.3 ± 2.4 Å²

DDSFLGKLGGTLAR [_DDSFLGK(Crotonyl)LGGTLAR_]
collision cross section [18]: 415.37 ± 0.28 Å²
collision cross section [19]: 492.69 Å²

DDSFLGKLGGTLAR [_DDSFLGK(Dimethyl (K))LGGTLAR_]
collision cross section [20]: 416.68 ± 0.75 Å²
collision cross section [21]: 473.5 ± 1.2 Å²

DDSFLGKLGGTLAR [_DDSFLGK(Formyl)LGGTLAR_]
collision cross section [22]: 408.49 ± 1.1 Å²

DDSFLGKLGGTLAR [_DDSFLGK(Gluratylation)LGGTLAR_]
collision cross section [23]: 415.27 ± 0.59 Å²
collision cross section [24]: 485.15 Å²

DDSFLGKLGGTLAR [_DDSFLGK(GlyGly (K))LGGTLAR_]
collision cross section [25]: 434.49 ± 0.96 Å²
collision cross section [26]: 484.35 ± 1.9 Å²

DDSFLGKLGGTLAR [_DDSFLGK(Malonyl)LGGTLAR_]
collision cross section [1]: 411.31 ± 1 Å²
collision cross section [2]: 489.57 ± 2.2 Å²

DDSFLGKLGGTLAR [_DDSFLGK(Methyl (K))LGGTLAR_]
collision cross section [3]: 408.16 ± 0.81 Å²
collision cross section [4]: 476.22 ± 3.5 Å²

DDSFLGKLGGTLAR [_DDSFLGK(Succinyl)LGGTLAR_]
collision cross section [6]: 412.99 ± 0.37 Å²
collision cross section [7]: 489.32 ± 3.3 Å²

DDSFLGKLGGTLAR [_DDSFLGK(Trimethyl (K))LGGTLAR_]
collision cross section [8]: 427.63 Å²
collision cross section [9]: 472.67 ± 1.8 Å²

DDSFLGKLGGTLAR [_DDSFLGK(hydroxyisobutyryl)LGGTLAR_]
collision cross section [10]: 418.74 ± 0.55 Å²
collision cross section [11]: 495.38 ± 2.8 Å²

DDSNLYINVK [_DDSNLY(Nitro (Y))INVK_]
collision cross section (charge state: 2, modification: Nitro (Y)): 367.46 ± 0.55 Å²

DDSNLYINVK [_DDSNLY(Phospho (Y))INVK_]
collision cross section (charge state: 2, modification: Phospho (Y)): 368.08 ± 0.064 Å²

DESFLGKLGGTLAR [_DESFLGK(Acetyl (K))LGGTLAR_]
collision cross section [12]: 410.82 ± 1.1 Å²
collision cross section [13]: 491.27 Å²

DESFLGKLGGTLAR [_DESFLGK(Biotin)LGGTLAR_]
collision cross section [14]: 424.81 Å²
collision cross section [15]: 506.47 Å²

DESFLGKLGGTLAR [_DESFLGK(Butyryl)LGGTLAR_]
collision cross section [16]: 417.73 ± 0.53 Å²
collision cross section [17]: 494.35 ± 3.3 Å²

DESFLGKLGGTLAR [_DESFLGK(Crotonyl)LGGTLAR_]
collision cross section [18]: 415.33 ± 0.28 Å²
collision cross section [19]: 492.01 Å²

DESFLGKLGGTLAR [_DESFLGK(Dimethyl (K))LGGTLAR_]
collision cross section [20]: 418.8 ± 0.75 Å²
collision cross section [21]: 466.85 ± 1.2 Å²

DESFLGKLGGTLAR [_DESFLGK(Formyl)LGGTLAR_]
collision cross section [22]: 408.46 ± 1.1 Å²

DESFLGKLGGTLAR [_DESFLGK(Gluratylation)LGGTLAR_]
collision cross section [23]: 418.47 ± 2.1 Å²
collision cross section [24]: 488.45 ± 2.4 Å²

DESFLGKLGGTLAR [_DESFLGK(GlyGly (K))LGGTLAR_]
collision cross section [25]: 437.68 ± 0.96 Å²
collision cross section [26]: 486.51 ± 1.1 Å²

DESFLGKLGGTLAR [_DESFLGK(Malonyl)LGGTLAR_]
collision cross section [1]: 413.79 ± 1.2 Å²
collision cross section [2]: 487.95 Å²

DESFLGKLGGTLAR [_DESFLGK(Methyl (K))LGGTLAR_]
collision cross section [3]: 408.12 ± 0.81 Å²
collision cross section [4]: 471.83 ± 2.8 Å²

DESFLGKLGGTLAR [_DESFLGK(Succinyl)LGGTLAR_]
collision cross section [6]: 416.2 ± 0.36 Å²
collision cross section [7]: 490.1 ± 2.1 Å²

DESFLGKLGGTLAR [_DESFLGK(Trimethyl (K))LGGTLAR_]
collision cross section [9]: 477.03 ± 0.84 Å²

DESFLGKLGGTLAR [_DESFLGK(hydroxyisobutyryl)LGGTLAR_]
collision cross section [10]: 419.07 ± 0.83 Å²
collision cross section [11]: 498.29 ± 2.3 Å²

DFAFYNPRLQGK [_DFAFYNPR(Citrullination (R))LQGK_]
collision cross section (charge state: 2, modification: Citrullination (R)): 400.16 ± 0.22 Å²
collision cross section (charge state: 3, modification: Citrullination (R)): 473.76 Å²

DFAFYNPRLQGK [_DFAFYNPR(Methyl (R))LQGK_]
collision cross section (charge state: 2, modification: Methyl (R)): 413.14 ± 0.67 Å²
collision cross section (charge state: 3, modification: Methyl (R)): 469.16 ± 2.2 Å²

DFDTALKHYDK [_DFDTALK(Acetyl (K))HYDK_]
collision cross section [12]: 401.2 ± 2 Å²
collision cross section [13]: 463.37 ± 2.2 Å²

DFDTALKHYDK [_DFDTALK(Biotin)HYDK_]
collision cross section [14]: 424.89 ± 0.23 Å²
collision cross section [15]: 488.66 Å²

DFDTALKHYDK [_DFDTALK(Butyryl)HYDK_]
collision cross section [16]: 408.66 ± 0.23 Å²
collision cross section [17]: 465.65 ± 2.9 Å²

DFDTALKHYDK [_DFDTALK(Crotonyl)HYDK_]
collision cross section [18]: 412.02 ± 2.4 Å²
collision cross section [19]: 466.35 ± 1.9 Å²

DFDTALKHYDK [_DFDTALK(Dimethyl (K))HYDK_]
collision cross section [21]: 452.29 ± 1.2 Å²

DFDTALKHYDK [_DFDTALK(Formyl)HYDK_]
collision cross section [22]: 397.93 ± 1.3 Å²
collision cross section (charge state: 3, modification: Formyl): 457.98 ± 2.1 Å²

DFDTALKHYDK [_DFDTALK(Gluratylation)HYDK_]
collision cross section [23]: 406.02 ± 0.63 Å²
collision cross section [24]: 469.01 ± 1.7 Å²

DFDTALKHYDK [_DFDTALK(GlyGly (K))HYDK_]
collision cross section [25]: 400.17 ± 0.77 Å²
collision cross section [26]: 467.02 ± 1.1 Å²

DFDTALKHYDK [_DFDTALK(Malonyl)HYDK_]
collision cross section [1]: 405.79 ± 0.59 Å²

DFDTALKHYDK [_DFDTALK(Methyl (K))HYDK_]
collision cross section [3]: 393.99 Å²
collision cross section [4]: 458.02 ± 4 Å²

DFDTALKHYDK [_DFDTALK(Propionyl)HYDK_]
collision cross section [5]: 403.21 Å²

DFDTALKHYDK [_DFDTALK(Succinyl)HYDK_]
collision cross section [6]: 404.59 ± 1.1 Å²
collision cross section [7]: 465.49 ± 2.9 Å²

DFDTALKHYDK [_DFDTALK(hydroxyisobutyryl)HYDK_]
collision cross section [10]: 409.01 ± 0.39 Å²
collision cross section [11]: 468.72 ± 1.9 Å²

DFSLTSSSQTPGATK [_DFS(HexNAc (ST))LTSSSQTPGATK_]
collision cross section (charge state: 2, modification: HexNAc (ST)): 426.98 ± 0.62 Å²
collision cross section (charge state: 3, modification: HexNAc (ST)): 516.25 Å²

DHLSDKESK [_DHLSDK(Acetyl (K))ESK_]
collision cross section [12]: 350.98 ± 1.6 Å²

DHLSDKESK [_DHLSDK(Biotin)ESK_]
collision cross section [14]: 368.95 Å²
collision cross section [15]: 429.55 Å²

DHLSDKESK [_DHLSDK(Butyryl)ESK_]
collision cross section [16]: 355.58 ± 0.7 Å²

DHLSDKESK [_DHLSDK(Crotonyl)ESK_]
collision cross section [18]: 361.16 ± 11 Å²

DHLSDKESK [_DHLSDK(Dimethyl (K))ESK_]
collision cross section [20]: 344.63 ± 1.5 Å²
collision cross section [21]: 408.73 ± 0.56 Å²

DHLSDKESK [_DHLSDK(Formyl)ESK_]
collision cross section [22]: 345.83 ± 0.37 Å²

DHLSDKESK [_DHLSDK(Gluratylation)ESK_]
collision cross section [23]: 353.36 ± 0.63 Å²
collision cross section [24]: 411.89 Å²

DHLSDKESK [_DHLSDK(GlyGly (K))ESK_]
collision cross section [25]: 353.15 ± 0.53 Å²
collision cross section [26]: 411.26 Å²

DHLSDKESK [_DHLSDK(Malonyl)ESK_]
collision cross section [1]: 349.37 ± 0.029 Å²
collision cross section [2]: 411.48 Å²

DHLSDKESK [_DHLSDK(Methyl (K))ESK_]
collision cross section [3]: 345.4 ± 1.5 Å²
collision cross section [4]: 413.72 ± 4.7 Å²

DHLSDKESK [_DHLSDK(Propionyl)ESK_]
collision cross section [5]: 355.5 ± 0.95 Å²

DHLSDKESK [_DHLSDK(Succinyl)ESK_]
collision cross section [6]: 350.32 ± 1.6 Å²
collision cross section [7]: 416.05 ± 0.88 Å²
